The supplement of paper PMC11865577

Legend:
Assay in all cases: pull-down binding Z-score (relative to library population); higher = stronger binding
Details in all cases: RNA library: Library-2
TO-N3 (biotin conjugate) = test system: TO-N3 (biotin conjugate)
In short: (§1)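 Cy5- or Cy3-end-labelled RNA library (1 μg) was heat-folded in phosphate/NaCl/KCl buffer and incubated 60 min at 25 °C with streptavidin beads carrying 100 pmol biotin-conjugated small molecule. After three washes, bound RNA was eluted in hot SDS and hybridised 20 h at 55.5 °C to a DNA barcode microarray. Binding was scored by subtracting a beads-only control, averaging barcoded replicate probes after dropping highest and lowest, and converting to a Z-score against library mean and standard deviation.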

[1] = test system: TO-N3-2 (biotin conjugate)
In short: as §1

[2] = test system: TO-3-N3 (biotin conjugate)
In short: as §1

[3] = test system: TO-3-N3-2 (biotin conjugate)
In short: as §1

Row | Sequence | pull-down binding Z-score (TO-N3 (biotin conjugate)) | pull-down binding Z-score [1] | pull-down binding Z-score [2] | pull-down binding Z-score [3]
1 | AAGUGCUUUUGUUAAUUUAAAACAAUUACCAUUU [SHAPE_invitro_SARS-CoV-2_Motif_354] | -0.977 | -0.811 | -0.729 | -0.225
2 | AAGUUAAUUUUCCUCUGGCUGUUAUGGCCAGUAACUU [SHAPE_invivo_SARS-CoV-2_Motif_506] | -1.02 | -0.963 | -0.74 | -0.439
3 | AAGUUUGUUCGCAUUCAACCAGGACAGACUU [DMSMaPseq_invitro_SARS-CoV-2_Motif_187] | 1.09 | -0.349 | 1.1 | 0.0441
4 | AAUAACUUACCUUUUAAGUUGACAUGUGCAACUACUAGACAAGUUGUU | -1.21 | -1.52 | -0.907 | -0.415
5 | AAUAGAAGAAUUAUUCUAUU [SHAPE_invitro_SARS-CoV-2_Motif_349] | -0.867 | -1.81 | -0.546 | -0.687
6 | AAUAUUGCUUUGCUUGUACAGUAAGUGACAACAGAUGUUUCAUCUCGUUGACUUUCAGGUUACUAUAGCAGAGAUAUU [DMSMaPseq_invitro_SARS-CoV-2_Motif_488] | -0.0703 | 0.237 | -0.135 | 0.152
7 | AAUCAAAAAGAGUUGAUU [DMSMaPseq_invitro_SARS-CoV-2_Motif_439] | -0.416 | -1.22 | -0.396 | -0.434
8 | AAUCAUACAUCACCAGAUGUUGAUU [SHAPE_invitro_SARS-CoV-2_Motif_454] | -0.814 | -0.903 | -0.503 | -0.477
9 | AAUGAGUUUUACGCAUAUUUGCGUAAACAUU | -1.36 | -1.23 | -0.889 | -0.413
10 | AAUGUAGUAGAAUUAUACCUGCACGUGCUCGUGUAGAGUGUUUUGAUAAAUUCAAAGUGAAUUCAACAUUAGAACAGUAUGUCUUUUGUACUGUAAAUGCAUU | 0.182 | -0.209 | 0.059 | 0.0794
11 | AAUGUUUUAUUCUCUACAGUGUUCCCACUUACAAGUUUUGGACCACUAGUGAGAAAAAUAUU [DMSMaPseq_invitro_SARS-CoV-2_Motif_260] | -0.882 | -0.866 | -0.786 | -0.434
12 | AAUUAUAAAUUACCAGAUGAUUUUACAGGCUGCGUUAUAGCUUGGAAUUCUAACAAUCUUGAUUCUAAGGUUGGUGGUAAUUAUAAUU | -0.993 | -0.712 | -0.932 | -0.123
13 | AAUUAUGAAGAUUUACUCAUUCGUAAGUCUAAUCAUAAUU | -0.429 | -0.858 | -0.0299 | -0.3
14 | AAUUGAUUCUUACUUUGUAGUUAAGAGACACACUUUCUCUAACUACCAACAUGAAGAAACAAUU | 0.281 | -0.614 | 0.502 | 0.0491
15 | ACAACAACCAUAAAACCAGUUACUUAUAAAUUGGAUGGUGUUGU | -1.03 | -1.37 | -0.686 | -0.38
16 | ACAACAGGAGUCACCUUUUGU [DMSMaPseq_invitro_SARS-CoV-2_Motif_108] | -1.15 | -1.07 | -0.879 | -0.592
17 | ACAACCCUUAAGGGUGU [SHAPE_invivo_SARS-CoV-2_Motif_115] | -1.19 | -1.1 | -0.802 | -0.665

Row | Sequence | pull-down binding Z-score (TO-N3 (biotin conjugate)) | pull-down binding Z-score [1] | pull-down binding Z-score [2] | pull-down binding Z-score [3]
18 | ACAAGAGGGUGUGGUUGAUUAUGGUGCUAGAUUUUACUUUUACACCAGUAAAACAACUGUAGCGUCACUUAUCAACACACUUAACGAUCUAAAUGAAACUCUUGU | 0.447 | 0.277 | 0.233 | 0.984
19 | ACAAGAUGAUAAGAAAAUCAAAGCUUGU | -1.1 | -0.969 | -0.879 | -0.459
20 | ACAAGGCUAUUGAUGGUGGUGUCACUCGUGACAUAGCAUCUACAGAUACUUGU [SHAPE_invitro_SARS-CoV-2_Motif_170] | -0.449 | -0.052 | -0.355 | -0.287
21 | ACAAGUUGCAAUUUACAAGUCUUGAAAUUCCACGUAGGAAUGUGGCAACUUUACAAGCUGAAAAUGUAACAGGACUCUUUAAAGAUUGU | -0.143 | 0.121 | -0.302 | 0.247
22 | ACAAUGGCAGACCUCGUCUAUGCUUUAAGGCAUUUUGAUGAAGGUAAUUGU | -0.93 | -1.12 | -0.812 | -0.242
23 | ACACAUUCUGACAAAUUCACAGAUGGUGU [SHAPE_invitro_SARS-CoV-2_Motif_350] | -0.471 | 0.264 | -0.577 | -0.395
24 | ACACGGUGUUUAAACCGUGU | 0.0341 | -1.15 | 0.59 | -0.00656
25 | ACACUAAUUCUUUCACACGUGGUGU [DMSMaPseq_invitro_SARS-CoV-2_Motif_381] | -0.398 | -0.973 | -0.0462 | -0.0877
26 | ACACUCUACGUGU | -1.78 | -1.93 | -1.14 | -0.979
27 | ACAGAAUGCUGU | -1.14 | -1.19 | -0.821 | -0.472
28 | ACAGACUUCAUUAAGAUGUGGUGCUUGCAUACGUAGACCAUUCUUAUGUUGUAAAUGCUGUUACGACCAUGUCAUAUCAACAUCACAUAAAUUAGUCUUGUCUGU | -0.512 | -0.489 | -0.753 | -0.127
29 | ACAGAGACUGAUAGUAAGUUCUCUGU [IAV_invivo_NA_6_Motif_16+IAV_invivo_NA_6_Motif_16] | -0.696 | -1.08 | -0.363 | -0.328
30 | ACAGAUCUUUACCAGGAGUUUUCUGU | -1.28 | -1.3 | -0.933 | -0.827
31 | ACAGCAGAGUGCUGU [IAV_invivo_M1_M2_7_Motif_17+IAV_invivo_M1_M2_7_Motif_17] | -0.887 | -1.37 | -0.599 | -0.794
32 | ACAGGAGUCACCUUUUGU [SHAPE_invitro_SARS-CoV-2_Motif_112] | -0.78 | -0.669 | -0.709 | -0.599
33 | ACAGGGACUACUCCCACCCAAGAAUAGCAUAGAUGCCUUCAAACUCAACAUUAAAUUGUUGGGUGUUGGUGGCAAACCUUGUAUCAAAGUAGCCACUGU | -0.503 | -0.183 | -0.466 | 0.116
